In patent EP4707300A1 (Beijing Wisdomab Biotechnology Co., Ltd, dated 2026):

What was measured:
[1] = target: human IL-15 (hIL-15+hIL-15Rα complex), tag on IL-15Rα not stated (human (homo sapiens)) (UniProt P40933); assay: cell-based or functional assay
[2] = target: human IL-15 (hIL-15+hIL-15Rα-His complex) (human (homo sapiens)) (UniProt P40933); assay: cell-based or functional assay
[3] = target: cynomolgus monkey IL-15 (mfIL-15+mfIL-15Rα complex), tag on IL-15Rα not stated (cynomolgus monkey (Macaca fascicularis)) (UniProt P40221); assay: SPR (Biacore T200), as in Example 2.2
[4] = target: human IL-15 (hIL-15+hIL-15Rα complex), tag on IL-15Rα not stated (human (homo sapiens)) (UniProt P40933); assay: SPR (Biacore T200), as in Example 2.2
[5] = target: human IL-15 (hIL-15+hIL-15Rα complex), tag on IL-15Rα not stated (human (homo sapiens)) (UniProt P40933); assay: SPR (Biacore T200), as in Example 2.2; remark: listed apart in the source
[6] = target: human IL-15 (hIL-15+hIL-15Rα complex), tag on IL-15Rα not stated (human (homo sapiens)) (UniProt P40933); assay: SPR (Biacore T200), antibody captured by anti-human IgG Fc, complex as analyte, 1:1 model
[7] = target: T1, human IL-15 (hIL-15+hIL-15Rα complex), tag on IL-15Rα not stated (human (homo sapiens), UniProt P40933 49-162; Q13261 31-128); assay: cell-based or functional assay
[8] = target: human IL-15 (hIL-15+hIL-15Rα-His complex) (human (homo sapiens), UniProt P40933 49-162; Q13261 31-128); assay: cell-based or functional assay
[9] = target: T1, human IL-15 (hIL-15+hIL-15Rα complex), …; assay: SPR (Biacore T200), as in Example 2.2
[10] = target: T1, human IL-15 (hIL-15+hIL-15Rα complex), …; assay: SPR (Biacore T200), as in Example 2.2; remark: listed apart in the source
[11] = target: T2, cynomolgus monkey IL-15 (mfIL-15+mfIL-15Rα complex), tag on IL-15Rα not stated (cynomolgus monkey (Macaca fascicularis), UniProt P40221 49-162; Q13261 31-128); assay: SPR (Biacore T200), as in Example 2.2
T2 construct: also called monkey IL-15+IL-15Rα superagonist
T2 chain 1: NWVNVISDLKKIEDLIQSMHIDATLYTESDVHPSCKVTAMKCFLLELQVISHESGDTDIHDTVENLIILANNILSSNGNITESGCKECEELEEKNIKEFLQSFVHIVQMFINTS
T2 chain 2: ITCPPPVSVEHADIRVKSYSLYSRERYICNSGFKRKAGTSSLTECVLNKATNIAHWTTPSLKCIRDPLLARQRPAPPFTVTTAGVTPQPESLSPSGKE

[12] = target: T3, mouse IL-15 (mIL-15+mIL-15Rα-mFc1 complex) (mouse (Mus musculus), UniProt P48346 49-162); assay: ELISA, complex coated at 1 µg/mL, anti-human IgG-HRP detection
T3 construct: also called mIL-15+mIL-15Rα-mFe1 complex

[13] = target: T1, human IL-15 (hIL-15+hIL-15Rα complex), …; assay: SPR (Biacore T200), antibody captured by anti-human IgG Fc, complex as analyte, 1:1 model
[14] = target: T1, human IL-15 (hIL-15+hIL-15Rα complex), …; assay: SPR (Biacore T200), as in Example 2.2; remark: listed apart in the source
[15] = target: cynomolgus monkey IL-15 (mfIL-15+mfIL-15Rα-His complex) (cynomolgus monkey (Macaca fascicularis), UniProt P40221 49-162 (Chlorocebus aethiops entry)); assay: ELISA, complex coated at 1 µg/mL, anti-human IgG-HRP detection
[16] = target: T1, human IL-15 (hIL-15+hIL-15Rα complex), …; assay: SPR (Biacore T200), as in Example 2.2; remark: listed apart in the source

T3 sequence (P48346 49-162 limits assumed, chain 1 of 2): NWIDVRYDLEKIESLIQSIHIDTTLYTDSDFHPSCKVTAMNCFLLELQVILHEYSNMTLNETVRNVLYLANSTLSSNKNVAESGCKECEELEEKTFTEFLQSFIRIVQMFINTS
T3 sequence (chain, as listed by the source limits assumed, chain 2 of 2): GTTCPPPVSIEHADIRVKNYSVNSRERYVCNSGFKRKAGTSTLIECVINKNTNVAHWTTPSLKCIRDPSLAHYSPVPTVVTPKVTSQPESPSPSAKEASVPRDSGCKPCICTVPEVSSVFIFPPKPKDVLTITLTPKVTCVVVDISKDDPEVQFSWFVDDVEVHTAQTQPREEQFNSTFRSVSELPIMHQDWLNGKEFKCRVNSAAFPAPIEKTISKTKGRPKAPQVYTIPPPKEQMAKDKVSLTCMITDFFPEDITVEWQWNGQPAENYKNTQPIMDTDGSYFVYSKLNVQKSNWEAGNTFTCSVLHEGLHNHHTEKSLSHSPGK
human IL-15 (hIL-15+hIL-15Rα-His complex), sequence (P40933 49-162 limits assumed, chain 1 of 2): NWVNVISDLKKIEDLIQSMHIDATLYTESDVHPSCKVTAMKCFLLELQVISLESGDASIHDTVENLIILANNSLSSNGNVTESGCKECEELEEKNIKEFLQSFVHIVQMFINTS
human IL-15 (hIL-15+hIL-15Rα-His complex), sequence (Q13261 other isoform, or with tags, fused parts or gaps limits assumed, chain 2 of 2): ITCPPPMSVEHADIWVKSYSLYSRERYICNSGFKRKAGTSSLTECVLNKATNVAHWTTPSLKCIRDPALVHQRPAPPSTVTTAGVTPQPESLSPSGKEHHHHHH

anti-human IL-15 monoclonal antibody CALY-002
IC50(nM), inhibition of IL-15-induced SEAP secretion by HEK-Blue IL-2 cells [1]: 3.23 nM | IC50(nM), inhibition of IL-15-driven proliferation of NK92 cells (Cell Titer-Glo) [2]: 0.106 nM | Kd [3]: 0.148 nM | koff [3]: 0.000188 s⁻¹ | kon [3]: 1.27e+06 M⁻¹ s⁻¹ | Kd [4]: 0.201 nM | koff [4]: 0.000207 s⁻¹ | kon [4]: 1.03e+06 M⁻¹ s⁻¹ | Kd [5]: 0.337 nM | koff [5]: 0.000235 s⁻¹ | kon [5]: 697000 M⁻¹ s⁻¹ | Kd [6]: 0.239 nM | koff [6]: 0.000319 s⁻¹ | kon [6]: 1.34e+06 M⁻¹ s⁻¹

B1: anti-human IL-15 monoclonal antibody R1A3 (antibody, V domains shown)
VH: EVQLVQSGAEVKKPGESLKISCKVSGYFFTTYWIGWVRQMPGKGLEYMGIIYPGDSDTRYSPSFQGQVTISADKSISTAYLQWSSLKASDTAMYYCARGGHWNAFDFWGQGTLVTVSS
VL: EIVLTQSPGTLSLSPGERATLSCRASQSVSSSYLAWYQQKPGQAPRLLIYGASRRATGIPDRFSGSGSGTDFTLTISRLEPEDFAVYYCQQFDASQTFGQGTKLEISR
notes: Found from a fully human Fab phage library
IC50(nM), inhibition of IL-15-induced SEAP secretion by HEK-Blue IL-2 cells [7]: 0.634 nM | IC50(nM), inhibition of IL-15-driven proliferation of NK92 cells (Cell Titer-Glo) [8]: 0.126 nM | Kd [9]: 0.352 nM | koff [9]: 0.000548 s⁻¹ | kon [9]: 1.56e+06 M⁻¹ s⁻¹ | Kd [10]: 0.612 nM | koff [10]: 0.00038 s⁻¹ | kon [10]: 621000 M⁻¹ s⁻¹ | Kd [11]: 0.722 nM | koff [11]: 0.000398 s⁻¹ | kon [11]: 552000 M⁻¹ s⁻¹ | binding result [12]: no binding | Kd [13]: 0.381 nM | koff [13]: 0.000537 s⁻¹ | kon [13]: 1.41e+06 M⁻¹ s⁻¹

B2: anti-human IL-15 monoclonal antibody AMG714 (antibody, V domains shown)
VH: EVQLVQSGAEVKKPGESLKISCKVSGYFFTTYWIGWVRQMPGKGLEYMGIIYPGDSDTRYSPSFQGQVTISADKSISTAYLQWSSLKASDTAMYYCARGGNWNCFDYWGQGTLVTVSS
VL: EIVLTQSPGTLSLSPGERATLSCRASQSVSSSYLAWYQQKPGQAPRLLIYGASRRATGIPDRFSGSGSGTDFTLTISRLEPEDFAVYYCQRYGSSHTFGQGTKLEISR
Kd [11]: 2.12 nM | koff [11]: 0.00124 s⁻¹ | kon [11]: 583000 M⁻¹ s⁻¹

B3: anti-human IL-15 monoclonal antibody R26H10 (antibody, V domains shown)
VH: QVTLKESGPVLVKPTETLTLTCTVSGFSLTTYAVHWIRQPPGKALEWLGVIWGAGSTDYNPSFMSRLTISKDTSKSQVVLTMTNMDPVDTATYYCAKNAAYYVMDYWGQGTTVTVSS
VL: EIVLTQSPGTLSLSPGERATLSCRASQSVIYSYLAWYQQKPGQAPRLLIYAASKLASGIPDRFSGSGSGTDFTLTISRLEPEDFAVYYCQQRASYPLTFGQGTKVEIK
notes: Humanized mutant of R6E11 with a fully human light chain; captured by anti-human IgG (Fc) in SPR and detected with anti-human IgG in ELISA
IC50(nM), inhibition of IL-15-induced SEAP secretion by HEK-Blue IL-2 cells [7]: 0.646 nM | IC50(nM), inhibition of IL-15-driven proliferation of NK92 cells (Cell Titer-Glo) [8]: 0.133 nM | Kd [14]: 1.22 nM | koff [14]: 0.000308 s⁻¹ | kon [14]: 252000 M⁻¹ s⁻¹ | Kd [10]: 1.13 nM | koff [10]: 0.000236 s⁻¹ | kon [10]: 208000 M⁻¹ s⁻¹ | Kd [11]: 99.9 nM | koff [11]: 0.021 s⁻¹ | kon [11]: 210000 M⁻¹ s⁻¹ | binding result [15]: binds | binding result [12]: no binding

B4: anti-human IL-15 monoclonal antibody R4G4VH+R22F11VK (antibody, V domains shown)
VH: EVQLVQSGAEVKKPGESLKISCKVSGYFFTTYWIGWVRQMPGKGLEYMGIIYPGDSDTRYSPSFQGQVTISADKSISTAYLQWSSLKASDTAMYYCARGGHWNAFDIWGQGTLVTVSS
VL: EIVLTQSPGTLSLSPGERATLSCRASQSVIGSYLAWYQQKPGQAPRLLIYSASKLASGIPDRFSGSGSGTDFTLTISRLEPEDFAVYYCQQHYSTPGTFGQGTKVEIK
notes: Mutant of R1A3; it was captured by anti-human IgG (Fc) in SPR and detected with anti-human IgG in ELISA, so a human Fc is implied; also called R4G4VH+R22FVK
IC50(nM), inhibition of IL-15-induced SEAP secretion by HEK-Blue IL-2 cells [7]: 0.312 nM | IC50(nM), inhibition of IL-15-driven proliferation of NK92 cells (Cell Titer-Glo) [8]: 0.109 nM | Kd [9]: 0.346 nM | koff [9]: 0.00029 s⁻¹ | kon [9]: 838000 M⁻¹ s⁻¹ | Kd [10]: 0.435 nM | koff [10]: 0.000196 s⁻¹ | kon [10]: 450000 M⁻¹ s⁻¹ | Kd [11]: 0.448 nM | koff [11]: 0.000172 s⁻¹ | kon [11]: 384000 M⁻¹ s⁻¹ | binding result [15]: binds | binding result [12]: no binding

B5: anti-human IL-15 monoclonal antibody R2H2VH+R22F11VK (antibody, V domains shown)
VH: EVQLVQSGAEVKKPGESLKISCKVSGYFFTTYWIGWVRQMPGKGLEYMGIIYPGDSDTRYSPSFQGQVTISADKSISTAYLQWSSLKASDTAMYYCARGGHWNSFDTWGQGTLVTVSS
VL: EIVLTQSPGTLSLSPGERATLSCRASQSVIGSYLAWYQQKPGQAPRLLIYSASKLASGIPDRFSGSGSGTDFTLTISRLEPEDFAVYYCQQHYSTPGTFGQGTKVEIK
notes: Mutant of R1A3; it was captured by anti-human IgG (Fc) in SPR and detected with anti-human IgG in ELISA, so a human Fc is implied; also called R2H2VH+R22FVK
IC50(nM), inhibition of IL-15-induced SEAP secretion by HEK-Blue IL-2 cells [7]: 0.397 nM | IC50(nM), inhibition of IL-15-driven proliferation of NK92 cells (Cell Titer-Glo) [8]: 0.119 nM | Kd [9]: 0.379 nM | koff [9]: 0.000299 s⁻¹ | kon [9]: 791000 M⁻¹ s⁻¹ | Kd [10]: 0.57 nM | koff [10]: 0.000204 s⁻¹ | kon [10]: 357000 M⁻¹ s⁻¹ | Kd [11]: 0.463 nM | koff [11]: 0.000171 s⁻¹ | kon [11]: 365000 M⁻¹ s⁻¹ | binding result [15]: binds | binding result [12]: no binding

B6: mouse anti-human IL-15 monoclonal antibody R6E11 (antibody, V domains shown)
VH: EVKLKESGPSLVQPSQSLSITCTVSGFSLTTYAVHWVRQSPGKGLEWLGVIWGAGSTDYNAAFMSRLSITKDNSKSQVFFKMNSLQADDTAIYFCAKNGAYYVMDYWGQGTSVTVSS
VL: EIVLTQSPAIMSASPGEKVTITCSASSSVSYMHWFQQRPGTSPKLWIYSTSNLASGVPARFSGSGSGTSYSLTISRMEAEDAATYYCQQRSSYPLTFGAGTKLEIK
notes: Mouse variable regions from a mouse immune phage library
Kd [16]: 0.689 nM | koff [16]: 0.000267 s⁻¹ | kon [16]: 387000 M⁻¹ s⁻¹ | Kd [14]: 0.983 nM | koff [14]: 0.000399 s⁻¹ | kon [14]: 406000 M⁻¹ s⁻¹
